Laboratory results published in US20230218738A1 (Pfizer, published 2023).

B1: MPE8 (antibody, V domains shown)
VH: EVQLVESGGGLVKPGGSLRLSCAASGFTFSSYSMNWVRQAPGKGLEWVSSISASSSYSDYADSAKGRFTISRDNAKTSLFLQMNSLRAEDTAIYFCARARATGYSSITPYFDIWGQGTLVTVSS
VL: QSVVTQTPSVSGAPGQRVTISCTGSSSNIGAGYDVHWYQQLPGTAPKLLIYDNNNRPSGVPDRFSASKSGTSASLAITGLQAEDEADYYCQSYDRNLSGVFGTGTKVTVL
notes: also called MPEG
B2: AM22 (antibody, V domains shown)
VH: QVQLVQSGAEVKKPGATVKVSCKISGHTLIKLSIHWVRQAPGKGLEWMGGYEGEVDEIFYAQKFQHRLTVIADTATDTVYMELGRLTSDDTAVYFCGTLGVTVTEAGLGIDDYWGQGTLVTVSS
VL: EIVLTQSPGTLSLSPGERATLSCRASQIVSRNHLAWYQQKPGQAPRLLIFGASSRATGIPVRFSGSGSGTDFTLTINGLAPEDFAVYYCLSSDSSIFTFGPGTKVDFK

Columns and labels:
Assay in all cases: BLI (Octet), F on anti-HIS tip, 20 nM mAb
[1] = molecular target: RSV F protein mutant pXCS776 (RSV A2, UniProt P03420 26-109)
[2] = molecular target: RSV F protein mutant pXCS735 (RSV A2, UniProt P03420 26-109)
[3] = molecular target: RSV F protein mutant pXCS809 (RSV A2, UniProt P03420 26-109)
[4] = molecular target: RSV F protein mutant pXCS873 (RSV A2, UniProt P03420 26-109)
[5] = molecular target: RSV F protein mutant pXCS874 (RSV A2, UniProt P03420 26-109)
[6] = molecular target: RSV F protein mutant pXCS875 (RSV A2, UniProt P03420 26-109)
[7] = molecular target: RSV F protein mutant pXCS877 (RSV A2, UniProt P03420 26-109)
[8] = molecular target: RSV F protein mutant pXCS897 (RSV A2, UniProt P03420 26-109)

Binder | Response (nm shift) [1] | Response (nm shift) [2] | Response (nm shift) [3] | Response (nm shift) [4] | Response (nm shift) [5] | Response (nm shift) [6] | Response (nm shift) [7] | Response (nm shift) [8]
B1 | 0.127 nm | 0.375 nm | – | – | – | – | – | –
B2 | – | – | 0.185 nm | 0.192 nm | 0.444 nm | 0.205 nm | 0.213 nm | 0.406 nm
